Laboratory results: the supplement of paper PMC9732359
± gives the uncertainty stated by the source.

experiment: protein stability index of a GFP-peptide fusion (yeast GPS) (PSI 1-4); higher = more stable; sorted into four equal gates, so the index is relative within each strain; details: pdr5∆
Outline: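 Plasmids in a pooled yeast library fused tiled 17-residue yeast protein peptides downstream of GFP and also expressed Cherry. Mid-log cultures grown without leucine were sorted into four equal gates by GFP/Cherry fluorescence ratio. Each gate's plasmids were PCR-amplified and Illumina-sequenced, and reads were matched to strains by barcodes. The protein stability index is derived by multiplying each gate's read frequency by its gate number and summing the results.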

Sequence | protein stability index
QQQQTSPPPQTHQSPPP [SNF5] | 2.878 ± 0.016
QQRGITYLNEVLEKDAA [YGR119C/NUP57] | 3.27 ± 0.079
QRDAEISQPKSMSGRIS [BRR2] | 3.3 ± 0.055

same assay, conditions: san1∆

Sequence | protein stability index
PRVQGFYVPQARNVTFD [GRR1] | 2.91 ± 0.038
PRYTYHTIFSDVCKTRF [YML031W/NDC1] | 2.62 ± 0.035
PSAVAGFINQKNLKPQE [YIL149C/MLP2] | 2.98 ± 0.05
PSINLDPDNTSFSDENS [ESC2] | 2.58 ± 0.064
PSKVSKIDSHVVLSFSG [PRE6] | 1.74 ± 0.12
PSLEVASEYIETLGLKY [FAS1] | 3.21 ± 0.07
PSQTLFSISYKPPTQKT [SRP21] | 1.97 ± 0.056
PSSEVYSPIEKESPWKI [RRP6] | 2.82 ± 0.12
PSTSSNMDVGNPRKRKA [GAL11] | 2.75 ± 0.12
PSTTDDENGDKNDNGGK [SWI3] | 3.23 ± 0.05
PSVAAEYVYFFNNTSVI [RPC40] | 1.54 ± 0.088
PSYSPTSPSYSPTSPSY [RPO21] | 2.859 ± 0.028
PTETYSDVGGLDKQIEE [RPT5] | 3.12 ± 0.068
PTQTKGNDAKPAKVEDV [YLR335W/NUP2] | 3.27 ± 0.039
PTSPSYSPTSPSYSPTS [RPO21] | 2.66 ± 0.04
PTSVKLLKTTVPIVSKK [POP3] | 2.86 ± 0.083
PTTMVTNQKDTNDHVDK [ISW2] | 1.67 ± 0.1
PTTVSYIFCISRTIGMV [SCL1] | 2.88 ± 0.036
PTVKYNRKVRAGRGFTL [RPL13A] | 2.94 ± 0.045
PVLNLDKLWTLIPEDKR [RPL28] | 2.04 ± 0.071
PVLSTIAFLVGLVNPKT [SWI3] | 2.33 ± 0.066
PVNTGVLHVSAKGKSGV [RRP40] | 2.62 ± 0.14
PVPSDSTRKKGGRRGRR [RPS14B] | 3.31 ± 0.069
PVRTIVPISTSQTNNSF [SIR4] | 2.22 ± 0.052
PWVVYLQILAMLLLNIF [YMR129W/POM152] | 1.18 ± 0.16
PYEMYKYVHVSEVGNCS [FAS2] | 2.11 ± 0.068

Sequence | protein stability index
QAIITERLVEFSNVNEL [YIL149C/MLP2] | 3.58 ± 0.15
QAIKEASYVNIPVIALT [RPS0A] | 2.15 ± 0.12
QAISYLHKLQRMRLRAL [GRR1] | 1.8 ± 0.055
QANQVKRHSYAQSSHIR [RPS1A] | 2.564 ± 0.025
QANTEPENITKREASRG [MCD1] | 3.03 ± 0.06
QAPKQRRRTYRAHGRIN [RPL17A] | 1.9 ± 0.18
QARIILNHILEKSTQLQ [YGR119C/NUP57] | 2.63 ± 0.12
QARTATLKYICAECSSK [RPC10] | 2.84 ± 0.065
QCCEFMTMLTPNYLHLV [YML103C/NUP188] | 1.66 ± 0.084
QDSIFQRIIADLSADKP [SRB8] | 2.59 ± 0.048
QDVAAKCKEVGITAVHV [RPS14B] | 2.8 ± 0.065
QDVDDAHAIDQMTWRQW [POP8] | 1.78 ± 0.069
QEAFKIYQHLASHNEKD [SRP72] | 2.93 ± 0.15
QEEFVQFLQLDNDGFSF [ECM29] | 1.93 ± 0.11
QEPFLNSSNYAELFNND [PRP8] | 2.55 ± 0.071
QEQLKNVKNDVSFNDSQ [YIL149C/MLP2] | 3.08 ± 0.083
QERQRQIQKNGPEITPE [PRP8] | 2.77 ± 0.11
QEYLNPVIDTQIANEFN [YDL116W/NUP84] | 2.71 ± 0.046
QFKTTIKDTANDNDITV [UBP6] | 2.19 ± 0.084
QFLRLIFVSILSDRANK [ARP9] | 2.18 ± 0.087
QFTGFLLHEMTQTYMQM [GRR1] | 2.2 ± 0.051
QGDEALSVDDIRGAVGN [RTT102] | 3.24 ± 0.059
QGEVGAVFIVPKILIRE [SWP82] | 1.69 ± 0.15
QGFSKDTFELIKTFLVD [YDL116W/NUP84] | 2.75 ± 0.062
QGGFYKQQDAEELFTQL [UBP6] | 3.07 ± 0.097
QGKSKLIIIAANTPVLR [RPL30] | 2.96 ± 0.065

Sequence | protein stability index
QGPRSYFLDVKCPGCLN [RPS27A] | 3.13 ± 0.08
QGRDTSKLPDPERWLPL [SRP72] | 3.31 ± 0.13
QGSMSERPPYILNSYGV [SIR2] | 3 ± 0.066
QGTNSVPNSIGNIFSNI [SNF5] | 3.15 ± 0.12
QHQRIVAFVCSPISDSR [RPN10] | 1.48 ± 0.15
QIENLNEVCLEKENRFE [SMC4] | 2.69 ± 0.23
QILTVDPKTSLRIVKPT [RPC82] | 3.09 ± 0.12
QINKAQILENYNALFQQ [YJL039C/NUP192] | 2.73 ± 0.065
QIPLHRAASVGSLKLIE [NAS6] | 2.23 ± 0.14
QIPVYDTFDGSDLRVLS [FAS1] | 2.53 ± 0.069
QIQKNGPEITPEEATTI [PRP8] | 2.83 ± 0.16
QITLTFISELCSIEPIA [YML103C/NUP188] | 1.48 ± 0.085
QIVSYCSNNKNSIKNVP [SSN2] | 1.4 ± 0.096
QIYTQRAYMRPLGVILT [SCL1] | 1.43 ± 0.12
QKEQNVNNRDSEKGFSK [YCS4] | 2.41 ± 0.061
QKSVSLLSSESNIPTLI [YDL116W/NUP84] | 2.8 ± 0.039
QLASQLVDLKKELAELK [RPL35A] | 3.21 ± 0.066
QLAVKIINKVLDYQETY [YJL039C/NUP192] | 2.51 ± 0.086
QLCQITCQILESGEDEA [RRP46] | 1.72 ± 0.09
QLDDEDFDLLNKTLTFE [FAS1] | 3.36 ± 0.069
QLNSRAVAVVVDPIQSV [RPN11] | 1.43 ± 0.12
QLSKAAKAAAALAGGKK [RPS25A] | 1.82 ± 0.08
QLSLDASKTNLRLTDVT [GAL11] | 3.06 ± 0.047
QLTEFWTELCQREFKEI [NNF1] | 3.06 ± 0.07
QLVIQQGTGKKTASLGN [ISW2] | 3.23 ± 0.21
QMMARMAQTATQQQPGA [SRP54] | 2.35 ± 0.067

Sequence | protein stability index
QMMQQAQQKLKQNPGLM [SRP54] | 3.12 ± 0.055
QNDFLFSVGESLSVVAG [ECM29] | 2.92 ± 0.11
QNEMIDAIAVTKGHGFE [RPL3] | 3.35 ± 0.1
QNENLPSDKSDSMVDKE [SSN2] | 2.73 ± 0.091
QNISPVYSVDPLEKITD [PRP8] | 2.86 ± 0.054
QNLRKELLIYKKSQCKK [YIL149C/MLP2] | 1.84 ± 0.086
QNPENLLSEKILQYFEK [SIR3] | 2.8 ± 0.054
QPAKEKGVTEKDAVDYS [RRP6] | 3.27 ± 0.091
QPKPLFSFGKSDAAKEP [YOR098C/NUP1] | 2.44 ± 0.073
QPSDVKPTSHKQLQQPK [SIR4] | 2.99 ± 0.084
QPWQMDTNNEADLMALE [SNF12] | 2.86 ± 0.054
QQAQARLQQGRRLPMTM [SNF2] | 3.24 ± 0.035
QQNPKFLQSQRQQQQRS [SWI1] | 2.67 ± 0.057
QQNYSKVLLPSINISCV [SWI1] | 1.87 ± 0.16
QQPTASDNIASLQYINI [SMD1] | 3.13 ± 0.12
QQQDQPEQSEQPEQHQD [RPN10] | 2.85 ± 0.046
QQQGQIPQSQQVPQVRS [SNF5] | 2.45 ± 0.063
QQQMANNNGNPGTTSTG [GAL11] | 3.26 ± 0.049
QQQNASSKLYQMQQQQQ [GAL11] | 1.5 ± 0.13
QQQQQNQQQQNQQPQQQ [SWI1] | 2.88 ± 0.032
QQQQQQQNPKFLQSQRQ [SWI1] | 2.79 ± 0.045
QQQQTSPPPQTHQSPPP [SNF5] | 2.88 ± 0.016
QQRGITYLNEVLEKDAA [YGR119C/NUP57] | 3.33 ± 0.061
